{
  "source": "patent US20200131270A1",
  "about": "(NATIONAL UNIVERSITY CORPORATION HOKKAIDO UNIVERSITY, published 2020)",
  "binders": {"B1": {"name": "canine PD-L1-His (ligand)", "chain": "FTITVSKDLYVVEYGGNVTMECKFPVEKQLNLFALIVYWEMEDKKIIQFVNGKEDLKVQHSSYSQRAQLLKDQLFLGKAALQITDVRLQDAGVYCCLIGYGGADYKRITLKVHAPYRNISQRISVDPVTSEHELMCQAEGYPEAEVIWTSSDHRVLSGKTTITNSNREEKLFNVTSTLNINATANEIFYCTFQRSGPEENNTAELVIPERLPVPASERTH"}},
  "key": {"canine PD-1-Ig": {"target": "T1, canine PD-1-Ig (canine; rabbit)", "T1 construct": "extracellular domain;domain: Fc; also called cPD-1-Ig; cPD-1", "assay": "SPR (Biacore X100): cPD-L1-His captured by anti-histidine antibody on CM5 chip, canine PD-1-Ig as analyte"}, "canine CD80-Ig": {"target": "T2, canine CD80-Ig (canine; rabbit)", "T2 construct": "extracellular domain;domain: Fc; also called cCD80-Ig; cCD80", "assay": "SPR (Biacore X100): cPD-L1-His captured by anti-histidine antibody on CM5 chip, canine CD80-Ig as analyte"}},
  "data": [
    {"binder": "B1", "values": [
      {"measurement": "Kd", "setting": "canine PD-1-Ig", "result": 25.4, "unit": "nM"},
      {"measurement": "Kd", "setting": "canine CD80-Ig", "result": 24.3, "unit": "nM"}
    ]}
  ]
}
